Experimental data published in the RNAGym collection of RNA variant scans (doi:10.1073/pnas.2313332121).
Fewer inactive variants are shown than the library holds.

B1: TPR 5TU (parent)
chain: GGAUCUUCUCGAUCUAACAAAAAAGACAAAUCUGCCACAAAGCUUGAGAGCAUCUUCGGAUGCAGAGGCGGCAGCCUUCGGUGGCGCGAUAGCGCCAACGUUCUCAACUAUGACACGCAAAACGCGUGCUCCGUUGAAUGGAGUUUAUCAUG

Variants of: B1
Experiment: polymerase ribozyme fitness, log enrichment relative to wild type (log ratio); higher = more active; in vitro selection for triplet polymerase activity
Method in brief: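 Mutant libraries for each subunit of a heterodimeric triplet polymerase ribozyme were made by PCR and then transcribed. Each library underwent one round of in vitro selection in triplicate: annealing with a biotinylated primer, the partner subunit and triplets, frozen incubation at −7 °C, gel excision of extended constructs, streptavidin-bead capture and RT-PCR. Input and output libraries were Illumina-sequenced, and only genotypes with ≥10 input reads and ≥1 read per output were kept. Fitness is the logarithm, base 2, of genotype enrichment over wild-type enrichment, computed from inverse-variance-weighted replicate averages.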

First: U33C A97G
Second: U31G U45A A49C G84A A113G A142C
The “polymerase ribozyme fitness (log ratio)” value of the first is higher: -2.92 for the first, at most -4.2 for the second.

First: C32G C38U G58A U82A C96A U104G A110C G133A U139A G152U
Second: C32U G81U G84A G94C
The “polymerase ribozyme fitness (log ratio)” value of the first is lower: at most -4.2 for the first, -3.46 for the second.

U33C C36A U55A G83A A89G A142U U148C and C32G C85G cannot be ordered by “polymerase ribozyme fitness (log ratio)” value: at most -4.2 for the first, at most -4.2 for the second.

First: C32G C85U
Second: U31C U56A G58C A98U C149U
The “polymerase ribozyme fitness (log ratio)” value of the first is lower: -3.86 for the first, 0.414 for the second.

U33G G34U and C32U C85U A89C A138C cannot be ordered by “polymerase ribozyme fitness (log ratio)” value: at most -4.2 for the first, at most -4.2 for the second.

C32U U61A G94C C105U A107U A110U and U33A U102C A107U C125A cannot be ordered by “polymerase ribozyme fitness (log ratio)” value: at most -4.2 for the first, at most -4.2 for the second.

U33G G81C G83A C87G C105A A120C A121G G143A U148A and U33C C35G C36G G50C G94U cannot be ordered by “polymerase ribozyme fitness (log ratio)” value: at most -4.2 for the first, at most -4.2 for the second.

Compared with C32U C54G G68U C75A, U31G A40G G83C A142G is lower in “polymerase ribozyme fitness (log ratio)” value: -3.88 for the first, at most -4.2 for the second.

Compared with C32U A41U, C32U A49C U55A G81A C85U U90A A106U A121U C125A is lower in “polymerase ribozyme fitness (log ratio)” value: -3.95 for the first, at most -4.2 for the second.

Going from C32G G42C A49U G94C C95A G126A to C32G C87G U104G A110G A150U, the “polymerase ribozyme fitness (log ratio)” value falls from -3.97 to at most -4.2.

C32U G42U C79G C129A A138G U146C and C32A A49U G68U C79G C85U U127G cannot be ordered by “polymerase ribozyme fitness (log ratio)” value: at most -4.2 for the first, at most -4.2 for the second.

C32A G50U U55A C85A and C32U C63U A91U C96U A113U G124C cannot be ordered by “polymerase ribozyme fitness (log ratio)” value: at most -4.2 for the first, at most -4.2 for the second.

Going from C32U C36A U55G C93G G133U G141U to U33A C76G G84C C85G C87G A89G G136C U145A, the “polymerase ribozyme fitness (log ratio)” value falls from -4.01 to at most -4.2.

First: U31G A60G G152U
Second: C32G C43U C54U A73G U77G
The “polymerase ribozyme fitness (log ratio)” value of the first is higher: -3.16 for the first, at most -4.2 for the second.

U33C C63U C99U A142G and U33A C43G G50U G84A A89U cannot be ordered by “polymerase ribozyme fitness (log ratio)” value: at most -4.2 for the first, at most -4.2 for the second.

Going from U33G A47C U56A A73G G83U C99A to U33C U56C G59C C79A C95U C123A G140U, the “polymerase ribozyme fitness (log ratio)” value falls from -4.05 to at most -4.2.

Compared with C32U G59U G81A, C32A A37U U56A G74A C76G G86A A115G G124A U151G is lower in “polymerase ribozyme fitness (log ratio)” value: -3.13 for the first, at most -4.2 for the second.

Compared with C32U U144A, U33C A49G U77G U130A G133U U135A is lower in “polymerase ribozyme fitness (log ratio)” value: -2.41 for the first, at most -4.2 for the second.

U33G A40C C116A and C32G U55G C79U C96G are within 0.2 log units of each other in “polymerase ribozyme fitness (log ratio)” value: -3.88 for the first, -4.01 for the second.

Going from C32G U146A to U33A U56A U90A A122C U151G, the “polymerase ribozyme fitness (log ratio)” value falls from -3.88 to at most -4.2.

Going from U31G C116G U144C to U33G A60G C85A A97U A142C, the “polymerase ribozyme fitness (log ratio)” value falls from -4.03 to at most -4.2.

First: U33G A39U C116A U130G
Second: C32U A52G U77G A97C U144A
The “polymerase ribozyme fitness (log ratio)” value of the first is higher: -3.98 for the first, at most -4.2 for the second.

U33G G46A A49C U77C A98U C99U G152U and U33A G48A U78C G84A C105U cannot be ordered by “polymerase ribozyme fitness (log ratio)” value: at most -4.2 for the first, at most -4.2 for the second.

C32A A41C G94U C103A C118U and C32G A37C G140C cannot be ordered by “polymerase ribozyme fitness (log ratio)” value: at most -4.2 for the first, at most -4.2 for the second.

First: U33C G59A A60U U145G
Second: C32U C87U C103G
The “polymerase ribozyme fitness (log ratio)” value of the first is higher: -4 for the first, at most -4.2 for the second.

Going from C32G G83A C85G C108G G124A U135G to C32U C54U, the “polymerase ribozyme fitness (log ratio)” value rises from at most -4.2 to -1.22.

U33C C43U G126U and C32G U55A G58A G68A C85U G88C C93A A106G C116A U135A cannot be ordered by “polymerase ribozyme fitness (log ratio)” value: at most -4.2 for the first, at most -4.2 for the second.

Compared with C32U G84A, C32A U53G C85U C96G G136C is lower in “polymerase ribozyme fitness (log ratio)” value: -2.55 for the first, at most -4.2 for the second.

C32A U45A A60G C75U G81A U90G C116A and U33A A41C C87A U130G A147G cannot be ordered by “polymerase ribozyme fitness (log ratio)” value: at most -4.2 for the first, at most -4.2 for the second.

U31G A37U A41C C75U C76G C96U C105U G117U G133U U134C and C32U C51A A52U C96G G136U cannot be ordered by “polymerase ribozyme fitness (log ratio)” value: at most -4.2 for the first, at most -4.2 for the second.

Compared with C32U A89U, U33G A52G A73G G92C A107U C114U C125U U134C G141C is lower in “polymerase ribozyme fitness (log ratio)” value: -2.63 for the first, at most -4.2 for the second.

U33G C54A G86A C87G A119U A122U G143C A147C and U31G G65U cannot be ordered by “polymerase ribozyme fitness (log ratio)” value: at most -4.2 for the first, at most -4.2 for the second.

Going from U31G G65A to C32G C54U A73C C79U C87G U145G, the “polymerase ribozyme fitness (log ratio)” value falls from -1.83 to at most -4.2.

Going from U31G U33A C75G A91G G140A G152A to C32A C38U G128C U135A, the “polymerase ribozyme fitness (log ratio)” value falls from -3.96 to at most -4.2.

C32G C87U A107U A113C C116A and C32U U53A A91C G94A C105G A121U U151C cannot be ordered by “polymerase ribozyme fitness (log ratio)” value: at most -4.2 for the first, at most -4.2 for the second.

Compared with U31C U53G G67C C76G G83A, C32U G50C C54G A73G G88A C96G is lower in “polymerase ribozyme fitness (log ratio)” value: -3.62 for the first, at most -4.2 for the second.

Going from U33C C57U G80U G83U C87U G128U to U31C U102A, the “polymerase ribozyme fitness (log ratio)” value rises from at most -4.2 to 0.128.

Going from U33A U61A to C32U U53A G84U A120G G128U A142U, the “polymerase ribozyme fitness (log ratio)” value falls from -3.64 to at most -4.2.

Going from C32U A60G A142G to C32A C85U A142U, the “polymerase ribozyme fitness (log ratio)” value falls from -3.31 to at most -4.2.

C32A G88C G141C and U33C A41U C57U G70C G83A A119C cannot be ordered by “polymerase ribozyme fitness (log ratio)” value: at most -4.2 for the first, at most -4.2 for the second.

U33C G81U C93G G143U and C32U C36A U55A U77G A91U G140U are within 0.2 log units of each other in “polymerase ribozyme fitness (log ratio)” value: -4.06 for the first, -3.95 for the second.

C32A C75G G92A A150U and U33A U53A U148C cannot be ordered by “polymerase ribozyme fitness (log ratio)” value: at most -4.2 for the first, at most -4.2 for the second.
